Values joined by “and” are separate entries in the source; they are usually repeats but may differ in a detail not shown here. Equal values may be shown once. Each block holds one binder with its values, some of them ahead of it.
Assays:
[1] = target: T1, recombinant human VEGF165 (human, UniProt P15692 27-191); experiment: Biacore SPR (FIG. 4c legend; differs from Table 10)
T1 construct: mature; Isoform VEGF165 of the entry; also called hVEGF165; hVEGF
Procedure: (§1) For the surface plasmon resonance experiment, carboxymethylated dextran biosensor chips (CM4, GE Healthcare) were activated with N-ethyl-N′-(3-dimethylaminopropyl) carbodiimide hydrochloride and N-hydroxysuccinimide according to the supplier's instructions. Each of the 6 different VEGF forms, as exemplified above, was coupled to 1 of the 4 different flow cells on a CM4 sensor chip using a standard amine-coupling procedure. […] The 4th flow cell of each chip was treated similarly except no proteins were immobilized prior to blocking, and the flow cell was used as in-line reference. […] Dissociation of the anti-VEGF scFv from the VEGF on the CM4 chip was allowed to proceed for 10 min at 25° C. Sensorgrams were generated for each anti-VEGF scFv sample after in-line reference cell correction followed by buffer sample subtraction. The apparent dissociation rate constant (kd), the apparent association rate constant (kₐ) and the apparent dissociation equilibrium constant (KD) were calculated using one-to-one Langmuir binding model with BIAcore T100 evaluation Software version 1.1.
The present invention also discloses derivatives originating from the lead anti-VEGF scFv candidates, which are mentioned above.

[2] = target: T1, recombinant human VEGF165; experiment: Biacore SPR, VEGF immobilized, pH 5
Target sequence in this assay (P15692 other isoform, or with tags, fused parts or gaps): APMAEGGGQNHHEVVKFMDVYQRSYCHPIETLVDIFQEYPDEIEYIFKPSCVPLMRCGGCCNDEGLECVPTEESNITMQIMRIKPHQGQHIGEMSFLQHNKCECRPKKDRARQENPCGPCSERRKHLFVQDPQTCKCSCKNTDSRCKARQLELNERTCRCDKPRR

[3] = target: T1, recombinant human VEGF165; experiment: cell-based or functional assay
[4] = target: T1, recombinant human VEGF165; experiment: Biacore SPR, VEGF immobilized, pH 7.4
Target sequence in this assay (P15692 other isoform, or with tags, fused parts or gaps): as above

[5] = target: T1, recombinant human VEGF165; experiment: cell-based or functional assay; remark: listed apart in the source
Target sequence in this assay (P15692 other isoform, or with tags, fused parts or gaps): as above

[6] = target: recombinant murine VEGF164 (mouse) (UniProt Q00731); experiment: Biacore SPR, VEGF immobilized, pH 5
[7] = target: recombinant rat VEGF164 (rat) (UniProt P16612); experiment: Biacore SPR, VEGF immobilized, pH 5
[8] = target: T1, recombinant human VEGF165; experiment: Biacore SPR, VEGF immobilized, pH 5; remark: listed apart in the source
Target sequence in this assay (P15692 other isoform, or with tags, fused parts or gaps): as above

recombinant human PLGF = target: T2, recombinant human PLGF (human, UniProt P49763-2 19-149, limits assumed); experiment: Biacore SPR, PlGF immobilized, pH 5
T2 construct: Negative control; also called PIGF
T2 sequence (looked up): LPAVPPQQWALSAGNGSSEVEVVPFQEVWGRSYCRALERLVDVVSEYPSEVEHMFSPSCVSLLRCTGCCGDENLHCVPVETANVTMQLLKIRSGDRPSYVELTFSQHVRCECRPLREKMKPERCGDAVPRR
Procedure: as §1, with “In this example, the Biacore-binding ability of scFvs was tested and the binding affinity was measured using the exemplary surface plasmon resonance method with BIAcore™-T100. The VEGF proteins, tested for binding by these scFv candidates, in this example and later examples include purified Escherichia coli-expressed recombinant human VEGF₁₆₅ (PeproTech EC Ltd.), recombinant human VEGF₁₂₁ (PeproTech EC Ltd.), recombinant human VEGF₁₁₀ (ESBATech AG), recombinant murine VEGF₁₆₄ (PeproTech EC Ltd.), recombinant rat VEGF₁₆₄ (Biovision), recombinant rabbit VEGF₁₁₀ (ESBATech AG), and recombinant human PLGF (PeproTech EC Ltd.). For” for “For”

[9] = target: T1, recombinant human VEGF165; experiment: VEGFR2 competition ELISA: hVEGF165 coated on the plate, scFv pre-incubated with human VEGFR2/Fc chimera, bound VEGFR2/Fc detected with anti-human Fc-HRP, OD 450 nm; half-maximal inhibition
Procedure: After 30-60 min of incubation at room temperature, the mixtures were transferred to the human VEGF₁₆₅ immobilized plate and incubated for 90 min. […] Optical density at 450 nm (OD 450 nm) was measured using a Sunrise microplate reader (Tecan).

[10] = target: T1, recombinant human VEGF165; experiment: cell-based or functional assay; remark: listed apart in the source
[11] = target: T3, recombinant human VEGF110 (human, UniProt P15692-4 27-136, limits assumed); experiment: Biacore SPR, VEGF immobilized, pH 5
T3 construct: Made in house; also called hVEGF110
T3 sequence (looked up): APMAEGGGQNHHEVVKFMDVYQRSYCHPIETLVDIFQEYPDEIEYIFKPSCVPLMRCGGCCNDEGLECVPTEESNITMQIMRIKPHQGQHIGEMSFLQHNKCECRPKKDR
Procedure: as §1, with “In this example, the Biacore-binding ability of scFvs was tested and the binding affinity was measured using the exemplary surface plasmon resonance method with BIAcore™-T100. The VEGF proteins, tested for binding by these scFv candidates, in this example and later examples include purified Escherichia coli-expressed recombinant human VEGF₁₆₅ (PeproTech EC Ltd.), recombinant human VEGF₁₂₁ (PeproTech EC Ltd.), recombinant human VEGF₁₁₀ (ESBATech AG), recombinant murine VEGF₁₆₄ (PeproTech EC Ltd.), recombinant rat VEGF₁₆₄ (Biovision), recombinant rabbit VEGF₁₁₀ (ESBATech AG), and recombinant human PLGF (PeproTech EC Ltd.). For” for “For”

[12] = target: T1, recombinant human VEGF165; experiment: Biacore SPR, VEGF immobilized, pH 5; remark: listed apart in the source
Procedure: as §1, with “In this example, the Biacore-binding ability of scFvs was tested and the binding affinity was measured using the exemplary surface plasmon resonance method with BIAcore™-T100. The VEGF proteins, tested for binding by these scFv candidates, in this example and later examples include purified Escherichia coli-expressed recombinant human VEGF₁₆₅ (PeproTech EC Ltd.), recombinant human VEGF₁₂₁ (PeproTech EC Ltd.), recombinant human VEGF₁₁₀ (ESBATech AG), recombinant murine VEGF₁₆₄ (PeproTech EC Ltd.), recombinant rat VEGF₁₆₄ (Biovision), recombinant rabbit VEGF₁₁₀ (ESBATech AG), and recombinant human PLGF (PeproTech EC Ltd.). For” for “For”
Target sequence in this assay (P15692 other isoform, or with tags, fused parts or gaps): as the sequence (P15692 other isoform, or with tags, fused parts or gaps) above

[13] = target: T4, recombinant human VEGF121 (human, UniProt P15692 27-147); experiment: Biacore SPR, VEGF immobilized, pH 5
T4 construct: mature; Isoform VEGF121 of the entry; also called hVEGF121
T4 sequence (looked up): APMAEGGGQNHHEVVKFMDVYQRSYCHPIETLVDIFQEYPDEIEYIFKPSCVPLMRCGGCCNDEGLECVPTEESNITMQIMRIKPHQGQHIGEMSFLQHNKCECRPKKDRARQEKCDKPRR
Procedure: as §1, with “In this example, the Biacore-binding ability of scFvs was tested and the binding affinity was measured using the exemplary surface plasmon resonance method with BIAcore™-T100. The VEGF proteins, tested for binding by these scFv candidates, in this example and later examples include purified Escherichia coli-expressed recombinant human VEGF₁₆₅ (PeproTech EC Ltd.), recombinant human VEGF₁₂₁ (PeproTech EC Ltd.), recombinant human VEGF₁₁₀ (ESBATech AG), recombinant murine VEGF₁₆₄ (PeproTech EC Ltd.), recombinant rat VEGF₁₆₄ (Biovision), recombinant rabbit VEGF₁₁₀ (ESBATech AG), and recombinant human PLGF (PeproTech EC Ltd.). For” for “For”

[14] = target: T4, recombinant human VEGF121; experiment: Biacore SPR (FIG. 3b legend; differs from Table 9)
Procedure: In this example, the Biacore-binding ability of scFvs was tested and the binding affinity was measured using the exemplary surface plasmon resonance method with BIAcore™-T100. The VEGF proteins, tested for binding by these scFv candidates, in this example and later examples include purified Escherichia coli-expressed recombinant human VEGF₁₆₅ (PeproTech EC Ltd.), recombinant human VEGF₁₂₁ (PeproTech EC Ltd.), recombinant human VEGF₁₁₀ (ESBATech AG), recombinant murine VEGF₁₆₄ (PeproTech EC Ltd.), recombinant rat VEGF₁₆₄ (Biovision), recombinant rabbit VEGF₁₁₀ (ESBATech AG), and recombinant human PLGF (PeproTech EC Ltd.). For the surface plasmon resonance experiment, carboxymethylated dextran biosensor chips (CM4, GE Healthcare) were activated with N-ethyl-N′-(3-dimethylaminopropyl) carbodiimide hydrochloride and N-hydroxysuccinimide according to the supplier's instructions. Each of the 6 different VEGF forms, as exemplified above, was coupled to 1 of the 4 different flow cells on a CM4 sensor chip using a standard amine-coupling procedure. […] The apparent dissociation rate constant (kd), the apparent association rate constant (kₐ) and the apparent dissociation equilibrium constant (KD) were calculated using one-to-one Langmuir binding model with BIAcore T100 evaluation Software version 1.1.

kon [1]: 845000 M⁻¹ s⁻¹ | Kd [2]: 0.2 nM | koff [2]: 0.000169 s⁻¹ | kon [2]: 834000 M⁻¹ s⁻¹
B1: 578 wildtype C-His (scFv, not shown: small tags and cut ends)
scFv: DVVMTQTPSSVSAAVGDTVTINCQASEIIHSWLAWYQQKPGQPPKLLIYLASTLASGVPSRFKGSGSGTQFTLTISDLECADAAIYYCQNVYLASTNGANFGGGTEVVVKGGGGSGGGGSGGGGSGGGGSQSVEESGGRLVTPGTPLTLTCTASGFSLTDYYYMTWVRLAPGKGLEYIGFIDPDDDPYYATWAKGRFTISRTSTTVNLKMTSPTTEDTATYFCAGGDHNSGWGLDIWGPGTLVTVSL
notes: Rabbit wild type single chain

EC50 in HUVEC assay (FIG. 8d) [3]: 0.103 nM | koff [4]: 3.76e-05 s⁻¹ | kon [4]: 1.58e+06 M⁻¹ s⁻¹ | Rel. activity in HUVEC assay (EC50Luc[nM]/EC50test[nM]) [5]: 1.48 | koff [6]: 0.00044 s⁻¹ | kon [6]: 1.03e+06 M⁻¹ s⁻¹ | koff [7]: 0.000528 s⁻¹ | kon [7]: 883000 M⁻¹ s⁻¹ | koff [8]: 0.000307 s⁻¹ | kon [8]: 700000 M⁻¹ s⁻¹ | binding result (recombinant human PLGF): no binding | EC50 (read off the curve) [9]: ~0.4 nM | Rel. activity in HUVEC assay (EC50Luc[nM]/EC50test[nM]) hVEGF [10]: 0.94 and 1 and 1.2 | koff [2]: 0.000307 s⁻¹ | kon [2]: 700000 M⁻¹ s⁻¹ | koff [11]: 0.000722 s⁻¹ | kon [11]: 523000 M⁻¹ s⁻¹ | koff [12]: 0.000307 s⁻¹ | kon [12]: 700000 M⁻¹ s⁻¹ | koff [13]: 0.000558 s⁻¹ | kon [13]: 587000 M⁻¹ s⁻¹ | Kd [14]: 0.095 nM
B2: 578-max (scFv)
scFv: EIVMTQSPSTLSASVGDRVIITCQASEIIHSWLAWYQQKPGKAPKLLIYLASTLASGVPSRFSGSGSGTQFTLTISSLQPDDFATYYCQNVYLASTNGANFGQGTKLTVLGGGGGSGGGGSGGGGSGGGGSEVQLVESGGGLVQPGGSLRLSCTASGFSLTDYYYMTWVRQAPGKGLEWVGFIDPDDDPYYATWAKGRFTISRDTSKNTVYLQMNSLRAEDTAVYYCAGGDHNSGWGLDIWGQGTLVTVSS
notes: also called EP578max; #821
